How the values were obtained:
[1] = Peptide content (assay) of lyophilized drug product by UPLC-UV at 220 nm, conventional method (peptide as reference standard); assay type: physicochemical; settings: conventional method (peptide as RS)
Experimental: The purity including individual related substances and the assay of a DP-5P (5 peptides, SEQ ID NOs: 1-5) and DP-7P (7 peptides, SEQ ID NOs: 6-12) mixture were determined by reversed phase rapid HPLC (UPLC) using a mobile phase gradient of acetonitrile and water and UV detection at λ=220 nm.
• Column: RP C18, e.g. Waters Acquity, BEH 130 PST (1.7 μm, 150×2.1 mm) • Sample matrix Eluent A : Eluent B=85:15 (v/v). • Sample concentration 100 μg/mL net peptide (of each drug substance mixture), duplicate • Injection volume: 5 μL • Column temperature: 65° C. • Sample temperature: 5° C. • Detection: UV (λ=220 nm) • Flow rate: 0.3 mL/min • Eluent A: 0.05%v/v TFA and 1%v/v Acetonitrile (ACN) in water • Eluent B: 0.05%v/v TFA in ACN
The relative retention times (RRTs) assigned to peptides and related substances both in a DP-5P (SEQ ID NO: 1-5) and DP-7P (SEQ ID NO: 6-12) mixture was calculated with reference to the retention time of the peptide eluting in the middle (FIG. 1 and FIG. 2). That retention time was used as reference as the main peak of this drug substance was detected approx. in the center of the chromatogram. The related substances were determined by area normalization. The individual related substances were reported≥0.10%a/a. The total related substances were calculated as the sum of all individual related substances equal to or greater than a disregard limit of 0.0500%a/a. The purity was calculated as the difference between total related substances and 100%.
The assay of each of the peptides was calculated against a reference standard solution containing either five peptides (DP-5P) or seven peptides (DP-7P) and was expressed in percent and in mg net peptide/vial. For this reference method, the absorption ratio between the reference substance and the analyte is 1, because the reference substance is the analyte itself.
At T=0 months (TOM) the peptide content was measured using the conventional method of Example 2. From T=48 months (T48M) onwards the peptide content was measured with the conventional method of Example 2 and the method according to the invention of Example 3.

[2] = Peptide content (assay) of lyophilized drug product by UPLC-UV at 220 nm, method according to the invention (USP reserpine reference standard, RRF); assay type: physicochemical; settings: method according to the invention (USP RS)
From the text: The UPLC method similar to Example 1 was used for the quantification of analytes (i.e. the individual peptides) in mixtures DP-5P (SEQ ID NO: 1-5) and DP-7P (SEQ ID NO: 6-12) and for the determination of content uniformity of mixtures DP-5P and DP-7P (lyophilized product). The method is based on the use of an external reference standard. The relative response factor (ratio of molar extinction coefficients, RRF) against this external reference standard has been established for each peptide. The purity, individual related substances, and the assay of DP-5P and DP-7P were determined by reversed phase rapid HPLC (UPLC) using a mobile phase gradient of ACN/IPA and water and UV detection at λ220 nm.
The following lyophilized peptide compositions were used: DP-5P comprising peptides represented herein by SEQ ID NO: 1-5 admixed at equal net weights of 0.40 mg of each peptide per vial (total amount of protein per vial being 2.00 mg) and 0.56 mg TFA per vial; and DP-7P comprising peptides represented herein by SEQ ID NO: 6-12 admixed at equal net weights of 0.40 mg of each peptide per vial (total amount of protein per vial being 2.80 mg) and 0.96 mg TFA per vial. The following chemicals were used: Acetonitrile, (Biosolve, 01204102); UPLC water, (Type 1, milli-Q); trifluoroacetic acid, (Chem Lab, CLoo.2094.0001), 2-propanol, (UPLC/MS grade, Biosolve, 16264102); Reserpine, (USP, Sigma Aldrich, 1601000). The following equipment was used: QuanRecovery vials, (Waters, 186009186); UPLC pump equipped with a gradient system, autosampler, and UV detection (Waters Acquity or equivalent) and mixer volume 425 μL.
• Mobile phase A: 0.1% (v/v) TFA in water • Mobile phase B: 0.1% (v/v) TFA in 70/30 ACN/IPA • Diluent A: 0.05% (v/v) TFA in water • Diluent B: 0.05% (v/v) TFA in ACN • Blank solution: 80/20 (v/v) diluent A/diluent B • Purge solvent: 80/20 (v/v) water/ACN • Needle wash: 0.05% (v/v) TFA in 80/20 (v/v) water/ACN
5.00 mg Reserpine reference material was accurately weighed and added into a 50 mL volumetric flask. 40.0 mL of blank solution was added, by means of a volumetric pipette. The solution was stirred for 10 min, by means of a magnetic stirrer, until fully dissolved. The solution was diluted to volume with blank solution and mixed well.
Transfer of 2.0 mL, by means of a volumetric pipette, of stock reference solution 1 into a 20 mL volumetric flask. Diluted to volume with blank solution and homogenized.
This sample preparation was setup for lyophilized products DP-5P and DP-7P in an initially sealed container. Before opening and dissolving the drug product, the vials were equilibrated at room temperature for at least 1 hour. The content of the vial was dissolved with 0.8 mL of diluent B, and stirred for 20 min, using a magnetic stirrer. 3.2 mL of diluent A were added. The solution was stirred well for 20 min, using a magnetic stirrer. After dissolving the content of the vial, the sample vial was kept on the lab bench for 30 minutes. The solution was stirred briefly and transferred into an HPLC vial.
• Column: Advance Bio Peptide Map (2.7 μm, 250 x 2.1 mm) • Sample matrix 0.05%v/v TFA in ACN : water (1:4 v/v) • Sample concentration 100 μg/mL net peptide (of each drug substance), duplicate • Injection volume: 10 μL • Column temperature: 40° C. • Sample temperature: 5° C. • Detection: UV (λ=220 nm) • Flow rate: 0.2 mL/min • Run time: 65 min • Purge solvent: 80/20 (v/v) water/ACN • Needle wash: 0.05% (v/v) TFA in 80/20 water/ACN (v/v) (20 s) • Seal wash: 90/10 (v/v) water/MeOH • Elution mode: Gradient elution • Eluent A: 0.1%v/v TFA in water • Eluent B: 0.1%v/v TFA in ACN/IPA (70:30 v/v)
The RRF was determined for all 12 peptides, enabling the quantification of each peptide against a reserpine as shown above. For the determination, the absorbance of each peptide in a solution comprising said peptide at a known concentration, and of a reference standard solution comprising reserpine at a known concentration, were measured at 220 nm. […]

In the case of “RCINCQKPLCPEEKQRHLDKKQRFHNIRGRWT (Peptide 4)”, the “Assay (mg/vial)” value ([1]; DP-5P batch, T0M) is reported as 0.3936 mg/vial, the “Label claim (% target 0.40 mg/vial)” value ([1]; DP-5P batch, T0M) is reported as 98% and the “Assay (mg/vial)” value ([1]; DP-5P batch, T48M) is reported as 0.3937 mg/vial. The “Label claim (% target 0.40 mg/vial)” value ([1]; DP-5P batch, T48M) was 98%, the “Assay (mg/vial)” value ([1]; DP-5P batch, T54M) was 0.3911 mg/vial and the “Label claim (% target 0.40 mg/vial)” value ([1]; DP-5P batch, T54M) was 98%. For the same sequence, the “Assay (mg/vial)” value ([1]; DP-5P batch, T60M) was 0.3913 mg/vial, the “Label claim (% target 0.40 mg/vial)” value ([1]; DP-5P batch, T60M) was 98% and the “Assay (mg/vial)” value ([2]; DP-5P batch, T48M) was 0.3820 mg/vial. For the same sequence, the “Label claim (% target 0.40 mg/vial)” value ([2]; DP-5P batch, T48M) was 96%, the “Assay (mg/vial)” value ([2]; DP-5P batch, T54M) was 0.3966 mg/vial and the “Label claim (% target 0.40 mg/vial)” value ([2]; DP-5P batch, T54M) was 99%. The “Assay (mg/vial)” value ([2]; DP-5P batch, T60M) was 0.3842 mg/vial and the “Label claim (% target 0.40 mg/vial)” value ([2]; DP-5P batch, T60M) was 96%.
In the case of RDLCIVYRDGNPYAVCDKCLKFYSKI (Peptide 11), the “Assay (mg/vial)” value ([1]; DP-7P batch, T0M) is reported as 0.4235 mg/vial, the “Label claim (% target 0.40 mg/vial)” value ([1]; DP-7P batch, T0M) is reported as 106% and the “Assay (mg/vial)” value ([1]; DP-7P batch, T48M) is reported as 0.4293 mg/vial. For the same sequence, the “Label claim (% target 0.40 mg/vial)” value ([1]; DP-7P batch, T48M) was 107%, the “Assay (mg/vial)” value ([1]; DP-7P batch, T54M) was 0.4192 mg/vial and the “Label claim (% target 0.40 mg/vial)” value ([1]; DP-7P batch, T54M) was 105%. The “Assay (mg/vial)” value ([1]; DP-7P batch, T60M) was 0.4209 mg/vial, the “Label claim (% target 0.40 mg/vial)” value ([1]; DP-7P batch, T60M) was 105% and the “Assay (mg/vial)” value ([2]; DP-7P batch, T48M) was 0.3866 mg/vial. For the same sequence, the “Label claim (% target 0.40 mg/vial)” value ([2]; DP-7P batch, T48M) was 97%, the “Assay (mg/vial)” value ([2]; DP-7P batch, T54M) was 0.3815 mg/vial and the “Label claim (% target 0.40 mg/vial)” value ([2]; DP-7P batch, T54M) was 95%. For the same sequence, the “Assay (mg/vial)” value ([2]; DP-7P batch, T60M) was 0.3788 mg/vial and the “Label claim (% target 0.40 mg/vial)” value ([2]; DP-7P batch, T60M) was 95%.
For “TLRLCVQSTHVDIRTLEDLLMGTLGIVCPICSQKP (Peptide 5)”, the “Assay (mg/vial)” value ([1]; DP-5P batch, T0M) was 0.3976 mg/vial, the “Label claim (% target 0.40 mg/vial)” value ([1]; DP-5P batch, T0M) was 99% and the “Assay (mg/vial)” value ([1]; DP-5P batch, T48M) was 0.4107 mg/vial. The “Label claim (% target 0.40 mg/vial)” value ([1]; DP-5P batch, T48M) was 103%, the “Assay (mg/vial)” value ([1]; DP-5P batch, T54M) was 0.3948 mg/vial and the “Label claim (% target 0.40 mg/vial)” value ([1]; DP-5P batch, T54M) was 99%. For the same sequence, the “Assay (mg/vial)” value ([1]; DP-5P batch, T60M) was 0.4011 mg/vial, the “Label claim (% target 0.40 mg/vial)” value ([1]; DP-5P batch, T60M) was 100% and the “Assay (mg/vial)” value ([2]; DP-5P batch, T48M) was 0.4028 mg/vial. The “Label claim (% target 0.40 mg/vial)” value ([2]; DP-5P batch, T48M) was 101%, the “Assay (mg/vial)” value ([2]; DP-5P batch, T54M) was 0.4021 mg/vial and the “Label claim (% target 0.40 mg/vial)” value ([2]; DP-5P batch, T54M) was 101%. For the same sequence, the “Assay (mg/vial)” value ([2]; DP-5P batch, T60M) was 0.3968 mg/vial and the “Label claim (% target 0.40 mg/vial)” value ([2]; DP-5P batch, T60M) was 99%.
For “YGTTLEQQYNKPLCDLLIRCINCQKPLCPEEK (Peptide 12)”, the “Assay (mg/vial)” value ([1]; DP-7P batch, T0M) was 0.4261 mg/vial, the “Label claim (% target 0.40 mg/vial)” value ([1]; DP-7P batch, T0M) was 107% and the “Assay (mg/vial)” value ([1]; DP-7P batch, T48M) was 0.4323 mg/vial. The “Label claim (% target 0.40 mg/vial)” value ([1]; DP-7P batch, T48M) was 108%, the “Assay (mg/vial)” value ([1]; DP-7P batch, T54M) was 0.4215 mg/vial and the “Label claim (% target 0.40 mg/vial)” value ([1]; DP-7P batch, T54M) was 105%. For the same sequence, the “Assay (mg/vial)” value ([1]; DP-7P batch, T60M) was 0.4219 mg/vial, the “Label claim (% target 0.40 mg/vial)” value ([1]; DP-7P batch, T60M) was 105% and the “Assay (mg/vial)” value ([2]; DP-7P batch, T48M) was 0.4132 mg/vial. For the same sequence, the “Label claim (% target 0.40 mg/vial)” value ([2]; DP-7P batch, T48M) was 103%, the “Assay (mg/vial)” value ([2]; DP-7P batch, T54M) was 0.4034 mg/vial and the “Label claim (% target 0.40 mg/vial)” value ([2]; DP-7P batch, T54M) was 101%. The “Assay (mg/vial)” value ([2]; DP-7P batch, T60M) was 0.4010 mg/vial and the “Label claim (% target 0.40 mg/vial)” value ([2]; DP-7P batch, T60M) was 100%.

From patent US20230296569A1, “Substance quantification in complex mixtures” (ISA Pharmaceuticals B.V., priority 2021, published 2023)
